This is an account of results in paper PMC10886158, “A New Phenolic Acid Decarboxylase from the Brown-Rot Fungus Neolentinus lepideus Natively Decarboxylates Biosourced Sinapic Acid into Canolol, a Bioactive Phenolic Compound” (Bioengineering, 2024).

The target in series [1] is native phenolic acid decarboxylase from Neolentinus lepideus strain BRFM15 (NlePAD) (Neolentinus lepideus (strain BRFM15)). The experiment in a line: SEC; purified native NlePAD on a Superdex 75 Prep Grade column in buffer A (20 mM sodium phosphate pH 7.5, 0.4 M saccharose, 2 mM DTT); calibrated with BSA, alpha-amylase, ovalbumin, casein and lysozyme; native mass 43-45 kDa compared with the 22 kDa band in SDS-PAGE.

Substrate in series [2]: COc1cc(/C=C/C(=O)O)ccc1O
The experiment in a line: purified protein. The following applies: pH 6, 50 mM sodium phosphate, 45 °C, 0.5-10 mM substrate, 30 min, apparent KM.

Substrate in series [3]: COc1cc(/C=C/C(=O)O)cc(OC)c1O
The experiment in a line: HPLC of canolol formed, Lineweaver-Burk plot. It is filed as biochemical, Neolentinus lepideus. To be noted: pH 6, 50 mM sodium phosphate, 37 °C, 0.5-10 mM substrate, 30 min, apparent KM.

On to “native phenolic acid decarboxylase from Neolentinus lepideus strain BRFM15 (NlePAD) (enzyme)”, for which the stoichiometry N in series [1] was found to be 2.

B1: NlePAD (Neolentinus lepideus HHB14362 ss-1) (protein)
chain: MSHEGATSEEFKQIEGKRFKYTYGLGWTYEMYFRSLTRCVYRILSGPLAGRVNFQHAHYQKIRDNVWQCSWLEETGTVVSMVVDFDQQTVKTFATFSRGHWDLPDQAKGWKRNPEDMARWRTLAQKGKDQADKHVLVEHAKMSELTSGQGDLPDIDDSWETM
notes: homodimer 2 x 22 kDa (SEC 43-45 kDa)
Turning to B1, in series [2], the Km came out at 2.6 mM and the kcat/Km came out at 14800 M⁻¹ s⁻¹. Further, in series [3], the Michaelis constant (Km) is 3.9 mM and the kcat/Km is 1600 M⁻¹ s⁻¹.

As a reminder, the stoichiometry N is the number of molecules, sites or subunits per partner or assembly. The term Km denotes the substrate concentration at which the rate is half of its maximum. Usually kcat/Km stands for the turnover number divided by the Michaelis constant.
